US20230220053A1 (published 2023)
Like-named read-outs stand apart in the source and are kept apart here.

B1: 2020EP54-E10 scFv (scFv)
scFv: QVQLVQSGAEVRKPGSSVKVSCKASGGTFSSFAISWVRQAPGQGLEWMGGIIPIFDTATYAQNFQGRVRMTADESTNTAYMELSSLTSEDTAVYYCARSTSYYDSRGDYKVGDFDYWGQGTLVTVSSGGGGSGGGGSGGGGSAIRMTQSPSSLSASVGDRVTITCQASQDISNYLNWYQQKPGKAPKLLIYDASNLETGVPSRFSGSGSGTDFTFTISSLQPEDIATYYCQQYDNLPLTFGGGTKVEIK
notes: also called 2020EP054-E10
B2: 2020EP54-B12 IgG1 (antibody, V domains shown)
VH: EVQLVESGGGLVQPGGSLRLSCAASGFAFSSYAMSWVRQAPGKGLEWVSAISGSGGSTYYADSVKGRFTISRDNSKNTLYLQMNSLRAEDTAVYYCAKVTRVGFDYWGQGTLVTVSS
VL: SYELTQPPSVSVAPGKTARITCGGNNIGSKSVHWYQQKPGQAPVLVIYYDSDRPSGIPERFSGSNSGNTATLTISRVEAEDEADYYCQVWDSSSDVVFGGGTKLTVL
notes: also called 2020EP054-B12; EP054-B12, IgG1
B3: 2020EP54-E12 IgG1 (antibody, V domains shown)
VH: EVQLVESGGGLVQPGGSLRLSCAVTGFIVSSNYMNWVRQAPGKGLEWVSVIYSGGTTYYADSVKGRFTISRDKSKNTLYLQMNNLRAEDTAMYYCATLGNDYGDYGTDYWGQGTLVTVSS
VL: QLVLTQPPSVSVSPGQTASISCSGDRLGQKYTSWYQQRPGQSPVLIMYQDNKRPSGIPERFSGSNSGNTATLTISGIQSMDEADYYCQVWDSGSDHAVFGGGTQLTVL
notes: also called 2020EP054-E12; EP054-E12, IgG1
B4: 2020EP54-E12 scFv (scFv)
scFv: EVQLVESGGGLVQPGGSLRLSCAVTGFIVSSNYMNWVRQAPGKGLEWVSVIYSGGTTYYADSVKGRFTISRDKSKNTLYLQMNNLRAEDTAMYYCATLGNDYGDYGTDYWGQGTLVTVSSGGGGSGGGGSGGGGSQLVLTQPPSVSVSPGQTASISCSGDRLGQKYTSWYQQRPGQSPVLIMYQDNKRPSGIPERFSGSNSGNTATLTISGIQSMDEADYYCQVWDSGSDHAVFGGGTQLTVL
notes: also called 2020EP054-E12
B5: 2020EP54-E10 IgG1 (antibody, V domains shown)
VH: QVQLVQSGAEVRKPGSSVKVSCKASGGTFSSFAISWVRQAPGQGLEWMGGIIPIFDTATYAQNFQGRVRMTADESTNTAYMELSSLTSEDTAVYYCARSTSYYDSRGDYKVGDFDYWGQGTLVTVSS
VL: not shown
notes: also called 2020EP054-E10

Legend:
[1] = molecular target: T1, RBD of SARS-CoV-2 spike protein S1 (recombinant, construct not stated) (SARS-CoV-2, UniProt P0DTC2 328-533)
[2] = molecular target: T2, S1 protein of SARS-CoV-2 (recombinant, construct not stated) (SARS-CoV-2, UniProt P0DTC2 16-685)
[3] = molecular target: T2, S1 protein of SARS-CoV-2 (recombinant, …); remark: listed apart in the source
[4] = molecular target: T2, S1 protein of SARS-CoV-2 (recombinant, …); assay: ELISA, S1 coated, scFv titrated, anti-Flag HRP
[5] = molecular target: T1, RBD of SARS-CoV-2 spike protein S1 …; assay: ELISA, RBD coated, scFv titrated, anti-Flag HRP
[6] = molecular target: T3, S1-Fc (SARS-CoV-2 S1 protein, Fc fusion) (SARS-CoV-2, UniProt P0DTC2 16-685); assay: SPR (Biacore T200), S1 captured on anti-human Fc chip, scFv injected
[7] = molecular target: T3, S1-Fc (SARS-CoV-2 S1 protein, Fc fusion); assay: as above; remark: listed apart in the source
[8] = molecular target: T4, SARS-CoV-2-RBD (328-533)-Fc (SARS-CoV-2); assay: SPR (Biacore T200), RBD captured on anti-human Fc chip, scFv injected
T4 construct: also called RBD-Fc

[9] = molecular target: T4, SARS-CoV-2-RBD (328-533)-Fc; assay: as above; remark: listed apart in the source
[10] = molecular target: T2, S1 protein of SARS-CoV-2 (recombinant, …); assay: ELISA, S1 coated, IgG1 titrated, anti-human Fc HRP
[11] = molecular target: T1, RBD of SARS-CoV-2 spike protein S1 …; assay: ELISA, RBD coated, IgG1 titrated, anti-human Fc HRP
[12] = molecular target: T5, S1 protein of SARS-COV (ACRO Biosciences) (SARS-COV, UniProt P59594 14-667); assay: ELISA, SARS-COV S1 coated, IgG titrated, anti-human Fc HRP
T5 construct: domain: S1

[13] = molecular target: S protein of SARS-COV-2 (Sino Biologics) (SARS-CoV-2, UniProt P0DTC2 16-1213); assay: ELISA, S protein (Sino Biologics) coated, anti-human Fc HRP
[14] = molecular target: T6, RBD of SARS-COV (ACRO Biosciences) (SARS-COV, UniProt P59594 306-527); assay: ELISA, SARS-COV RBD coated, IgG titrated, anti-human Fc HRP
T6 construct: domain: RBD; also called RBD-SARS; SARS-COV, RBD

[15] = molecular target: T2, S1 protein of SARS-CoV-2 (recombinant, …); assay: SPR (Biacore T200), IgG captured on protein A chip, S1 injected
[16] = molecular target: T1, RBD of SARS-CoV-2 spike protein S1 …; assay: SPR (Biacore T200), IgG captured on protein A chip, RBD injected
[17] = molecular target: T2, S1 protein of SARS-CoV-2 (recombinant, …); remark: listed apart in the source
[18] = molecular target: T2, S1 protein of SARS-CoV-2 (recombinant, …); remark: listed apart in the source
[19] = molecular target: SARS-CoV-2-RBD (328-533)-His (SARS-CoV-2, UniProt P0DTC2 328-533)
[20] = molecular target: HIS tagged S1 of SARS-CoV-2 (SARS-CoV-2, UniProt P0DTC2 16-685)
[21] = molecular target: T5, S1 protein of SARS-COV (ACRO …); assay: ELISA, SARS-COV S1 (ACRO) coated, anti-human Fc HRP
[22] = molecular target: T6, RBD of SARS-COV (ACRO Biosciences); assay: ELISA, SARS-COV RBD (ACRO) coated, anti-human Fc HRP
[23] = molecular target: T5, S1 protein of SARS-COV (ACRO …); assay: SPR (Biacore T200), IgG captured on protein A chip, SARS-COV S1 injected
[24] = molecular target: T6, RBD of SARS-COV (ACRO Biosciences); assay: SPR (Biacore T200), IgG captured on protein A chip, SARS-COV RBD injected

Binder | IC50 [1] | IC50 [2] | IC50 [3] | EC50 [4] | EC50 [5] | Kd [7] | koff [7] | kon [7] | Kd [9] | koff [9] | kon [9] | EC50 [10] | EC50 [11] | binding result [12] | EC50 [13] | binding result [14] | Kd [15] | koff [15] | kon [15] | Kd [16] | other results
B1 | < 1 nM | 4.94 nM | 4.69 nM | 0.154 nM | 0.16 nM | 3.35 nM | 0.00106 s⁻¹ | 316000 M⁻¹ s⁻¹ | 1.89 nM | 0.000906 s⁻¹ | 477000 M⁻¹ s⁻¹ | – | – | – | – | – | – | – | – | – | Kd [6]: 3.35 nM; koff [6]: 0.00106 s⁻¹; kon [6]: 316000 M⁻¹ s⁻¹; Kd [8]: 1.9 nM; koff [8]: 0.000906 s⁻¹; kon [8]: 477000 M⁻¹ s⁻¹
B2 | – | – | – | – | – | – | – | – | – | – | – | 0.045 nM | 0.045 nM | no binding (tested: 200 nM (highest concentration tested)) | 0.032 nM | no binding (tested: 200 nM (highest concentration tested)) | 61.9 nM | 0.00507 s⁻¹ | 82000 M⁻¹ s⁻¹ | 6.4 nM | koff [16]: 0.00578 s⁻¹; kon [16]: 903000 M⁻¹ s⁻¹
B3 | – | – | – | – | – | – | – | – | – | – | – | 0.103 nM | 0.053 nM | no binding (tested: 200 nM (highest concentration tested)) | 0.462 nM | no binding (tested: 200 nM (highest concentration tested)) | – | – | – | – | IC50 [17]: 3.79 nM; IC50 [18]: 1.9 nM
B4 | 6.69 nM | 8.57 nM | 6.58 nM | 0.737 nM | 0.486 nM | 13.2 nM | 0.000687 s⁻¹ | 51900 M⁻¹ s⁻¹ | 9.61 nM | 0.000469 s⁻¹ | 48900 M⁻¹ s⁻¹ | – | – | – | – | – | – | – | – | – | –
B5 | – | – | – | – | – | – | – | – | – | – | – | 0.084 nM | 0.08 nM | – | 0.0846 nM | – | 1.15 nM | 0.000292 s⁻¹ | 254000 M⁻¹ s⁻¹ | 0.131 nM | Kd [19]: 0.554 nM; koff [19]: 0.000807 s⁻¹; kon [19]: 1.46e+06 M⁻¹ s⁻¹; Kd [20]: 2.3 nM; koff [20]: 0.000498 s⁻¹; kon [20]: 217000 M⁻¹ s⁻¹; IC50 [17]: 0.774 nM; IC50 [18]: 2.71 nM; EC50 [21]: 0.027 nM; EC50 [22]: 0.035 nM; koff [16]: 0.00032 s⁻¹; kon [16]: 2.43e+06 M⁻¹ s⁻¹; Kd [23]: 57.1 nM; koff [23]: 0.00433 s⁻¹; kon [23]: 75800 M⁻¹ s⁻¹; Kd [24]: 3.69 nM; koff [24]: 0.00675 s⁻¹; kon [24]: 1.83e+06 M⁻¹ s⁻¹
